According to patent US20240409645A1 (DUALYX, published 2024):
Changes are numbered by the printed parent chain.

B1: 18-MP03C03 VHH (periplasmic extract) (VHH)
VHH: QVQLVESGGGLVQPGGSLRLSCAISGGTLDSYGIGWVRQAPGKQREGVSCMSRSDDRTYYADSVKGRFTISKDSAKNTVYLQMTSLKPEDTAVYYCAAVDAYGCSLVQPTTYDFWGLGTQVTVSS
notes: soluble VHH in periplasmic extract
B2: 19-MP03F08 VHH (periplasmic extract) (VHH)
VHH: EVQLVESGGGLVQTGGSLRLSCAASGGTFSRDAMAWFRQVPGKEREFVALISWSGATTNYADSVKGRFAISRDNGKNTVYLQMNRLKPADTAIYYCAADRRPMGSRSYFEPTEYDDWGQGTQVTVSS
notes: as for B1
B3: 35-MP07G01 VHH (periplasmic extract) (VHH)
VHH: QVQLQESGGGLVQGGGSLRLSCAASGGIFSSYAMGWFRQAPGKEREFVAAISRSGRSTNYADSVKGRFTISRDNAKSTVYLQMNSLKPEETAVYYCAAGRYYNSAYDPSPGDFGSWGHGTQVTVSS
notes: as for B1
B4: 22-MP03F12 VHH (periplasmic extract) (VHH)
VHH: EVQLVESGGGLVQAGGSLRLSCAASGSIFSINAMAWFRQVPGMERELVAAISRDGGASVYRDSVKGRFTISRDNSKNTVYLQMNTLKPEDTAIYVCAATRAIGWTARWITTDFDFWGQGTQVTVSS
notes: as for B1
B5: 26-MP06A07 VHH (periplasmic extract) (VHH)
VHH: QVQLQESGGGLVQAGGSLRLSCAASGDVFVRYTMAWFRQAPGKEREFVASVTDSGRTTEYVDSVKGRFTVSRDNAKNTAYLQMNNLKPEDTAIYYCAANTDYFQIRSLDLNTWGQGTQVTVSS
notes: as for B1
B6: 23-MP06F03 VHH (periplasmic extract) (VHH)
VHH: B5 VHH with Q5V, A24V, E59D, D62H, A79V, I93V, R106K, L110A
notes: as for B1
B7: 15-MP02E06 VHH (periplasmic extract) (VHH)
VHH: QVQLVESGGGSVQPGGSLRLSCAASGFTFSNYAMSWVRQAPGKGLEWVASITGFGRGTDYADSVKGRFTISRDNAEDTLYLQMNSLKPEDTAVYYCAKYSSSTYYPPTPARGRDYRGQGTQVTVSS
notes: as for B1
B8: 17-MP02C09 VHH (periplasmic extract) (VHH)
VHH: QVQLQESGGGLVQAGGSLRLSCVASGSVSSINGMAWYRQGADNQRVLVAAISRVGNTAYGDSVKGRFTISRQNARNTVYLQMNSLKPEDTAVYYCNADSWGGDDYWGQGTQVTVSS
notes: as for B1
B9: 24-MP06E05 VHH (periplasmic extract) (VHH)
VHH: QVQLVESGGELVQGGASLRLSCAASGRTFSNANMAWFRQAPEKEREFVALITWSSGSTLYADSVKGRFTISRDNARKMVYLQMNSLKPEDTAVYYCAADGPPYSGTYYRYDTYDYWGQGTQVTVSS
notes: as for B1
B10: FJ1427_P035MP07C12 (VHH)
VHH: QVQLVESGGGLVQAGGSLRLSCAASGRSLSRDAMGWFRQAPGKEREFVAVMSWGGDTFYTDSVEGRFTFSRDNAKNAVYLEMNDLQPEDTAVYYCAAAPTSFATTAYSSSNSYSYWGRGTQVTVSS
notes: Tested as soluble VHH fragment in periplasmic extract (P.E.); also called Clone nr
B11: 20-MP03F10 VHH (periplasmic extract) (VHH)
VHH: EVQLVESGGGLVQAGGSLRLSCAASGRDFSSYAMGWFRQAPGKEREFVVAITWTKRSTDFPDSVKGRFTISRDNAKNTVYLDMNSLKPEDTAVYYCASARGLPVTPLGDIIYWGEGTLVTVSS
notes: as for B1
B12: FJ1427_P035MP07E11 (VHH)
VHH: QVQLVESGGGLVQAGGSLRLSCAASGRTLSRYAMGWFRQAPGKEREFVTANSWGGDTYYADSVQGRFTFSRDNAKNTVYLQMNSLQPEDTAVYYCAAAPTSFATTAYSSSNSYAYWGQGTQVTVSS
notes: as for B10
B13: FJ1427_P035MP07E12 (VHH)
VHH: B12 VHH with A60T, Q64E, T77A, A114T
notes: as for B10
B14: FJ1427_P035MP07G11 (VHH)
VHH: B12 VHH with V5Q
notes: as for B10
B15: FJ1427_P035MP07F11 (VHH)
VHH: B12 VHH with Y32L, T49A, A50V, Y58F, Q64E, F69Y, N76S, T77A
notes: as for B10
B16: FJ1427_P035MP07H11 (VHH)
VHH: QVQLVESGGGLVQPGGSLRLSCAASGRTLSRYAMGWFRQAPGKDREFVAASSWGGDTFYADSVEGRFTFSRDNAENATYLQMNSLQPEDTAVYYCAAAPTSFATTAYSSSNSYGSWGQGTQVTVSS
notes: Tested as soluble VHH fragment in periplasmic extract (P.E.); also called Clone nr; 664
B17: FJ1427_P035MP07B12 (VHH)
VHH: B12 VHH with Q1E, F47Y, T49A, A50I, N51D, Y58F, Q64E, T77E, A97G, A114R
notes: as for B10
B18: FJ1427_P035MP07D12 (VHH)
VHH: B12 VHH with T28A, Y32L, T49V, N51S, G55D, Y58F, Q64K, E88G
notes: Tested as soluble VHH fragment in periplasmic extract (P.E.); also called Clone nr; 668
B19: FJ1427_P035MP07F12 (VHH)
VHH: EVQLVESGGGLVQAGDSLRLSCVASGRTLSRCAMGWFRKAPGKEREYVAISSWGGDTFYEDSVEGRFTFSRDNAKNTVYLQMNSLRPEDTAVYYCAAAPTSFATTAYSSSNSYAYWGQGTQVTVSS
notes: Tested as soluble VHH fragment in periplasmic extract (P.E.); also called Clone nr; 670
B20: 16-MP02B08 VHH (periplasmic extract) (VHH)
VHH: EVQLVESGGGLVQAGGSLRLSCAASGRAIENYPVGWFRQAPGKEREFVAAITWISGSTLYADSVKGRFTISRDNAKNTVYLQMSSLKPEDTALYYCAAALKTITRGQNDYSYWGQGTQVTVSS
notes: as for B1

Legend:
[1] = target: T1, human interleukin-2 receptor β-chain (IL-2Rβ; CD122), recombinant protein (human, UniProt P14784 27-240); experiment: P.E. binding ELISA
T1 construct: also called human IL-2R subunit CD122
T1 sequence: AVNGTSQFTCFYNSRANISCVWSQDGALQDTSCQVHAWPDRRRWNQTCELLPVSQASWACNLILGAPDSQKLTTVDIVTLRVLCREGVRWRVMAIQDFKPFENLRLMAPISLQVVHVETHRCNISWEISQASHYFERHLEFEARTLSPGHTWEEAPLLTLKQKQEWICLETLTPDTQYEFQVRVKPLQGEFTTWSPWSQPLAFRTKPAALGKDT
In short: (§1)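 Human or mouse IL-2Rα, IL-2Rβ or IL-2Rγ protein coated directly overnight at 4° C, blocked with 4% Marvel/PBS for 1 hour.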

[2] = target: T1, human interleukin-2 receptor β-chain …; experiment: P.E. off-rate SPR
In short: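 Recombinant receptor was amine-coupled in acetate buffer onto a CM5 carboxymethyl dextran chip at approximately 2500 RU. VHH-containing periplasmic extracts were injected at 30 uL/min, and dissociation was followed for 120s to give off-rates.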

[3] = target: T2, human common cytokine receptor γ-chain (γc; IL-2Rγ; CD132), recombinant protein (human, UniProt P31785 23-262); experiment: P.E. binding ELISA
T2 construct: also called human IL-2R subunit CD132
T2 sequence: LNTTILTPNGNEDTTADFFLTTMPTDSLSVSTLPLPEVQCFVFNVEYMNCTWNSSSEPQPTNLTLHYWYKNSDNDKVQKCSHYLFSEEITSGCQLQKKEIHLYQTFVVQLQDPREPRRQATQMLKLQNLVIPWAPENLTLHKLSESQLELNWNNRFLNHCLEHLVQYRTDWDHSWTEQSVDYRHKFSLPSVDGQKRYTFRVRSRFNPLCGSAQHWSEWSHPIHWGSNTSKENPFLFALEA
In short: as §1

[4] = target: T3, human IL-2Rγ (common cytokine receptor γ-chain) (human, UniProt P31785 23-262, limits assumed); experiment: binding ELISA, periplasmic extract on coated human IL-2Rγ
T3 construct: Recombinant human IL-2Rγ protein coated on the ELISA plate or immobilised on the CM5 chip; also called hu IL-2R; CD132
T3 sequence: T2 sequence
Method: (§2) In a binding ELISA, human or mouse IL-2Rα, IL-2Rβ and IL-2Rγ proteins were coated directly on maxisorp microtiter plates overnight at 4° C. Free binding sites were blocked using 4% Marvel in PBS for 1 hour. Next, 1:5 dilution of P.E. in 1% Marvel/PBS were added to wells and incubated for 1 hour. […] Binding specificity was determined based on O.D. at 450 nm values compared to negative controls.

mouse IL-2Rγ [5] = target: T4, mouse IL-2Rγ (mouse, UniProt P34902 23-263, limits assumed); experiment: binding ELISA, periplasmic extract on coated mouse IL-2Rγ
T4 construct: Recombinant mouse IL-2Rγ protein coated on the ELISA plate or immobilised on the CM5 chip; also called mo IL-2R
T4 sequence (looked up): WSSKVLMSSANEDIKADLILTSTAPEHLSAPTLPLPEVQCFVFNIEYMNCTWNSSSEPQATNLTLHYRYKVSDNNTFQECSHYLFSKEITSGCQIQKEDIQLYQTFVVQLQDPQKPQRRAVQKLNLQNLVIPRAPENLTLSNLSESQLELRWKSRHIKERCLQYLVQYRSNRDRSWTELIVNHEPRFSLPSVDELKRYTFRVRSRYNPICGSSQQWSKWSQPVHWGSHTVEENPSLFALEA
Method: as §2

mouse IL-2Rγ [6] = target: T4, mouse IL-2Rγ; experiment: SPR off-rate ranking, periplasmic extract over immobilised mouse IL-2Rγ
Method: (§3) SPR was performed to determine dissociation rates using Biacore 3000 instrument (GE Healthcare). Briefly, human and mouse IL-2R proteins were immobilized on carboxylmethyl dextran sensor chip (CM5) at approximately 2500 RUs using amine coupling in acetate buffer (GE Healthcare). The VHH-containing P.E. were loaded with a flow rate of 30 uL/min and the off-rates were measured over a 120s period.

[7] = target: T3, human IL-2Rγ (common cytokine receptor …); experiment: SPR off-rate ranking, periplasmic extract over immobilised human IL-2Rγ
Method: as §3

Row | Binder | OD450 nm [1] [OD450 nm] | koff [2] [s⁻¹] | OD450 nm [3] [OD450 nm] | P.E. binding ELISA OD450 [4] [OD450 nm] | P.E. binding ELISA OD450 (mouse IL-2Rγ [5]) [OD450 nm] | koff (mouse IL-2Rγ [6]) [s⁻¹] | koff [7] [s⁻¹]
1 | B1 | 0.405 | 0.000594 | – | – | – | – | –
2 | B2 | 0.245 | 0.000296 | – | – | – | – | –
3 | B3 | – | – | 0.134 | – | – | – | –
4 | B4 | 0.781 | 0.000419 | – | – | – | – | –
5 | B5 | 1.03 | 0.000363 | – | – | – | – | –
6 | B6 | 0.54 | 0.00105 | – | – | – | – | –
7 | B7 | 0.581 | 0.00169 | – | – | – | – | –
8 | B8 | 1.21 | 0.000848 | – | – | – | – | –
9 | B9 | 0.355 | 0.000471 | – | – | – | – | –
10 | B10 | – | – | – | 0.426 | 0.071 | 0.0146 | 0.00197
11 | B11 | 0.497 | 0.000595 | – | – | – | – | –
12 | B12 | – | – | – | 0.398 | 0.045 | 0.109 | 0.00304
13 | B13 | – | – | – | 0.956 | 0.05 | 0.0883 | 0.00305
14 | B14 | – | – | – | 0.999 | 0.046 | 0.099 | 0.00351
15 | B15 | – | – | – | 0.983 | 0.686 | 0.00757 | 0.00131
16 | B16 | – | – | – | 1.32 | 0.057 | 0.066 | 0.00252
17 | B17 | – | – | – | 1.79 | 0.7 | 0.00766 | 0.00153
18 | B18 | – | – | – | 0.511 | 0.051 | 0.0122 | 0.00199
19 | B19 | – | – | – | 0.823 | 0.341 | 0.00792 | 0.00197
20 | B20 | 1.38 | 0.000141 | – | – | – | – | –
